Read-outs that look alike come from different tables or passages of the source.
T1: recombinant human IL-17A (SEQ ID NO: 78) (human, UniProt Q16552 24-155, limits assumed)
T1 construct: homodimer; also called huIL-17A; hulL-17A
T1 sequence: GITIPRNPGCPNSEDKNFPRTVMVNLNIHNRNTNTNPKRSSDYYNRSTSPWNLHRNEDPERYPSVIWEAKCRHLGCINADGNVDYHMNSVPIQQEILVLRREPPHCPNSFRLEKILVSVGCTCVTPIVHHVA

T2: recombinant mouse IL-17A (SEQ ID NO: 83) (mouse, UniProt Q62386 26-158)
T2 sequence: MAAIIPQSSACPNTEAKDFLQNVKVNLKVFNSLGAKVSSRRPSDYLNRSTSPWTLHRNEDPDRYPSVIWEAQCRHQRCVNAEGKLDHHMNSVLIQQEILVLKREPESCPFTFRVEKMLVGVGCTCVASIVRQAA

T3: recombinant human IL-17A (SEQ ID NO: 76) (human, UniProt Q16552 24-155, limits assumed)
T3 sequence: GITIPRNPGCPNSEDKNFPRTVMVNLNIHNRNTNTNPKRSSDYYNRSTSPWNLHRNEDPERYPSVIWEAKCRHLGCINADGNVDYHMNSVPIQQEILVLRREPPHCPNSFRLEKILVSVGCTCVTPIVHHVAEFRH

T4: human IL-17A (construct not stated) (human, UniProt Q16552 24-155, limits assumed)
T4 sequence: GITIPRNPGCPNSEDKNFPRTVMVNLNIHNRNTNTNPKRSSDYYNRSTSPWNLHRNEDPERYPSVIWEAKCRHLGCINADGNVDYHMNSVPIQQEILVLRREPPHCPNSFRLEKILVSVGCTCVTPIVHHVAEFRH

T5: recombinant rat IL-17A (SEQ ID NO: 85) (rat, UniProt Q61453 18-150)
T5 construct: also called rratIL-17A; rIL-17A
T5 sequence: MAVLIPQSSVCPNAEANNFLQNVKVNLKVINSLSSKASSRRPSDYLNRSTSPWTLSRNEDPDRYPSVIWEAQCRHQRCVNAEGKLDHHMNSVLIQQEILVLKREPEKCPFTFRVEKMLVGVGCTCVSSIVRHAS

T6: recombinant cynomolgus IL-17A (SEQ ID NO: 79) (cynomolgus monkey, UniProt Q16552 24-155 (human entry), limits assumed)
T6 construct: also called cynoIL-17A; cyno IL-17A
T6 chain: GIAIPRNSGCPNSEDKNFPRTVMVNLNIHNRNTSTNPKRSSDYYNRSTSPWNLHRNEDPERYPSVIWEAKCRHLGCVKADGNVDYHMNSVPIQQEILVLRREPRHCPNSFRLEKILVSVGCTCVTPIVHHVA

T7: recombinant human IL-17A/F heterodimer (human, UniProt Q16552 24-155; Q96PD4 31-163, limits assumed)
T7 construct: heterodimer of an IL-17A subunit and an IL-17F subunit; also called huIL-17A/F; rhuIL-17A/F
T7 sequence (looked up) 1: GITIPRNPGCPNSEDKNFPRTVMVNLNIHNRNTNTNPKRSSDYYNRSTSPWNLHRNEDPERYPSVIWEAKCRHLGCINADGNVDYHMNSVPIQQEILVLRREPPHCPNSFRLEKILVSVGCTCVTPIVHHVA
T7 sequence (looked up) 2: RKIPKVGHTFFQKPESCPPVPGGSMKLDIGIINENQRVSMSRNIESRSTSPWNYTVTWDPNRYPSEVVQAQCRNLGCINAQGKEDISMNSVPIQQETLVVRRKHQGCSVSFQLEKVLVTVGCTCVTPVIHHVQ


Legend:
[1] = molecular target: T1, recombinant human IL-17A (SEQ ID NO: 78); experiment: SPR (Biacore), captured antibody, antigen as analyte
[2] = molecular target: T2, recombinant mouse IL-17A (SEQ ID NO: 83); experiment: cell-based or functional assay
[3] = molecular target: T3, recombinant human IL-17A (SEQ ID NO: 76); experiment: cell-based or functional assay
[4] = molecular target: T4, human IL-17A (construct not stated); experiment: cell-based or functional assay
[5] = molecular target: T3, recombinant human IL-17A (SEQ ID NO: 76); experiment: cell-based or functional assay; remark: listed apart in the source
[6] = molecular target: T5, recombinant rat IL-17A (SEQ ID NO: 85); experiment: SPR (Biacore), captured antibody, antigen as analyte
[7] = molecular target: T2, recombinant mouse IL-17A (SEQ ID NO: 83); experiment: as above
[8] = molecular target: T6, recombinant cynomolgus IL-17A (SEQ ID …); experiment: as above
[9] = molecular target: T7, recombinant human IL-17A/F heterodimer; experiment: as above
[10] = molecular target: T1, recombinant human IL-17A (SEQ ID NO: 78); experiment: as above; remark: listed apart in the source
[11] = molecular target: T4, human IL-17A (construct not stated); experiment: ELISA on coated huIL-17A, crude Fab extract
[12] = molecular target: T4, human IL-17A (construct not stated); experiment: ELISA on coated huIL-17A, crude Fab extract, overnight with 200 nM XAB1 Fab as competitor
[13] = molecular target: T4, human IL-17A (construct not stated); experiment: ELISA on coated huIL-17A, crude Fab extract, wash of at least 3 h
[14] = molecular target: T4, human IL-17A (construct not stated); experiment: ELISA titration of purified Fab on plate-coated huIL-17A, normalized signal; x axis printed as log10 of Fab concentration (M)

Binder | IC50, KC secretion by CMT-93 cells; stimulus mIL-17A (0.15 nM) [2] | IC50, huIL-6 secretion by BJ cells; stimulus rhuIL-17A (0.5 nM) [3] | EC50, in vitro neutralization activity, T = 0 weeks [4] | EC50, in vitro neutralization activity, T = 4 weeks at pH 8, 40°C (forced deamidation) [4] | IC50, huGROα secretion by BJ cells; stimulus rhuIL-17A (0.5 nM) [5] | Classic ELISA (normalized to XAB1 Fab) [11] | Competition ELISA (normalized to XAB1 Fab) [12] | Off-rate ELISA (normalized to XAB1 Fab) [13] | EC50 (read off the curve) [14] | other results
XAB2 (antibody, human IgG1, kappa, V domains shown) VH: EVQLVESGGDLVQPGGSLRLSCAASGFTFSSYWMSWVRQAPGKGLEWVANIKQDGSEKYYVDSVKGRFTISRDNAKNSLYLQMNSLRAEDTAVYYCARDRGSLYYWGQGTLVTVSS VL: AIQLTQSPSSLSASVGDRVTITCRPSQVIISALAWYQQKPGKAPKLLIYDASSLEQGVPSRFSGSVSGTDFTLTISSLQPEDFATYYCQQFDSYPLTFGGGTKVEIKR | 20.9 nM | 0.64 nM | 45 ng/mL | 47 ng/ml | 0.4 nM | – | – | – | – | Kd [1]: 0.0176 nM; koff [1]: 7.12e-05 s⁻¹; kon [1]: 4.09e+06 M⁻¹ s⁻¹
XAB3 (antibody, human IgG1, kappa, V domains shown, also called MB468 N56Q) VH: EVQLVESGGDLVQPGGSLRLSCAASGFTFSSYWMSWVRQAPGKGLEWVANIKQDGSEKYYVDSVKGRFTISRDNAKNSLYLQMNSLRAEDTAVYYCARDRGSLYYWGQGTLVTVSS VL: AIQLTQSPSSLSASVGDRVTITCRPSQGIYWELAWYQQKPGKAPKLLIYDASSLEQGVPSRFSGSGSGTDFTLTISSLQPEDFATYYCQQFNSYPLTFGGGTKVEIKR | < 1 nM | 0.5 nM | 40 ng/mL | 40 ng/ml | 0.42 nM | – | – | – | – | Kd [6]: 0.0826 nM; koff [6]: 7.59e-05 s⁻¹; kon [6]: 905000 M⁻¹ s⁻¹; Kd [7]: 0.174 nM; koff [7]: 0.000101 s⁻¹; kon [7]: 587000 M⁻¹ s⁻¹; Kd [8]: 0.0349 nM; koff [8]: 4.23e-05 s⁻¹; kon [8]: 1.21e+06 M⁻¹ s⁻¹; Kd [9]: 0.0329 nM; koff [9]: 0.000103 s⁻¹; kon [9]: 3.37e+06 M⁻¹ s⁻¹; Kd [10]: 9.58 pM; koff [10]: 5.01e-05 s⁻¹; kon [10]: 5.48e+06 M⁻¹ s⁻¹
MB463 (Fab, V domains shown, heavy chain C-terminal Flag tag) VH: EVQLVESGGDLVQPGGSLRLSCAASGFTFSSYWMSWVRQAPGKGLEWVANIKQDGSEKYYVDSVKGRFTISRDNAKNSLYLQMNSLRAEDTAVYYCARDRGSLYYWGQGTLVTVSS VL: AIQLTQSPSSLSASVGDRVTITCRPSQGIYFELAWYQQKPGKAPKLLIYDASSLENGVPSRFSGSGSGTDFTLTISSLQPEDFATYYCQQFNSYPLTFGGGTKVEIK | – | – | – | – | – | 2.7 ratio to XAB1 Fab | 31.6 ratio to XAB1 Fab | 34.2 ratio to XAB1 Fab | ~3 nM | –
MB444 (Fab, V domains shown, heavy chain C-terminal Flag tag) VH: EVQLVESGGDLVQPGGSLRLSCAASGFTFSSYWMSWVRQAPGKGLEWVANIKQDGSEKYYVDSVKGRFTISRDNAKNSLYLQMNSLRAEDTAVYYCARDRGSLYYWGQGTLVTVSS VL: AIQLTQSPSSLSASVGDRVTITCRPSQGILWELAWYQQKPGKAPKLLIYDASSLENGVPSRFSGSGSGTDFTLTISSLQPEDFATYYCQQFNSYPLTFGGGTKVEIK | – | – | – | – | – | 3.2 ratio to XAB1 Fab | 52.4 ratio to XAB1 Fab | 48.9 ratio to XAB1 Fab | ~2 nM | –
XAB5 (antibody, human IgG1, kappa, V domains shown) VH: EVQLVESGGDLVQPGGSLRLSCAASGFTFSSYWMSWVRQAPGKGLEWVANIKQDGSEKYYVDSVKGRFTISRDNAKNSLYLQMNSLRAEDTAVYYCARDRGSLYYWGQGTLVTVSS VL: AIQLTQSPSSLSASVGDRVTITCRPSQGINWELAWYQQKPGKAPKLLIYDASSLENGVPSRFSGSGSGTDFTLTISSLQPEDFATYYCQQFNSYPLTFGGGTKVEIKR | 7.8 nM | 0.54 nM | 45 ng/mL | 61 ng/ml | 0.46 nM | – | – | – | – | –

Now from value to binder, other results behind:

IC50, KC secretion by CMT-93 cells; stimulus mIL-17A (0.15 nM) [2] | IC50, huIL-6 secretion by BJ cells; stimulus rhuIL-17A (0.5 nM) [3] | EC50, in vitro neutralization activity, T = 0 weeks [4] | EC50, in vitro neutralization activity, T = 4 weeks at pH 8, 40°C (forced deamidation) [4] | IC50, huGROα secretion by BJ cells; stimulus rhuIL-17A (0.5 nM) [5] | Classic ELISA (normalized to XAB1 Fab) [11] | Competition ELISA (normalized to XAB1 Fab) [12] | Off-rate ELISA (normalized to XAB1 Fab) [13] | EC50 (read off the curve) [14] | Binder | other results
– | – | – | – | – | 2.8 ratio to XAB1 Fab | 60 ratio to XAB1 Fab | 43.9 ratio to XAB1 Fab | ~2 nM | MB468 (Fab, V domains shown, heavy chain C-terminal Flag tag; with N56Q formatted to IgG as XAB3) VH: EVQLVESGGDLVQPGGSLRLSCAASGFTFSSYWMSWVRQAPGKGLEWVANIKQDGSEKYYVDSVKGRFTISRDNAKNSLYLQMNSLRAEDTAVYYCARDRGSLYYWGQGTLVTVSS VL: AIQLTQSPSSLSASVGDRVTITCRPSQGIYWELAWYQQKPGKAPKLLIYDASSLENGVPSRFSGSGSGTDFTLTISSLQPEDFATYYCQQFNSYPLTFGGGTKVEIK | –
– | – | – | – | – | 2.8 ratio to XAB1 Fab | 54 ratio to XAB1 Fab | 52.5 ratio to XAB1 Fab | ~0.6 nM | MB440 (Fab, V domains shown, heavy chain C-terminal Flag tag) VH: EVQLVESGGDLVQPGGSLRLSCAASGFTFSSYWMSWVRQAPGKGLEWVANIKQDGSEKYYVDSVKGRFTISRDNAKNSLYLQMNSLRAEDTAVYYCARDRGSLYYWGQGTLVTVSS VL: AIQLTQSPSSLSASVGDRVTITCRPSQGILWQLAWYQQKPGKAPKLLIYDASSLENGVPSRFSGSGSGTDFTLTISSLQPEDFATYYCQQFNSYPLTFGGGTKVEIK | –
– | – | – | – | – | 2.7 ratio to XAB1 Fab | 36.9 ratio to XAB1 Fab | 34.9 ratio to XAB1 Fab | ~2 nM | MB464 (Fab, V domains shown, 30 stays I); heavy chain C-terminal Flag tag) VH: EVQLVESGGDLVQPGGSLRLSCAASGFTFSSYWMSWVRQAPGKGLEWVANIKQDGSEKYYVDSVKGRFTISRDNAKNSLYLQMNSLRAEDTAVYYCARDRGSLYYWGQGTLVTVSS VL: AIQLTQSPSSLSASVGDRVTITCRPSQGIIYQLAWYQQKPGKAPKLLIYDASSLENGVPSRFSGSGSGTDFTLTISSLQPEDFATYYCQQFNSYPLTFGGGTKVEIK | –
